Source: US20080026996A1, “Selective Vpac2 Receptor Reptide Agonists” (ELI LILLY AND COMPANY, priority 2004, published 2008)
Where no end group is shown, it is not given here. [ ]: non-standard residue; d: D form. hArg = N=C(N)NCCCC[C@H](N)C(=O)O

T1: human VPAC2 receptor (human, UniProt P41587 24-438)
T1 sequence (looked up): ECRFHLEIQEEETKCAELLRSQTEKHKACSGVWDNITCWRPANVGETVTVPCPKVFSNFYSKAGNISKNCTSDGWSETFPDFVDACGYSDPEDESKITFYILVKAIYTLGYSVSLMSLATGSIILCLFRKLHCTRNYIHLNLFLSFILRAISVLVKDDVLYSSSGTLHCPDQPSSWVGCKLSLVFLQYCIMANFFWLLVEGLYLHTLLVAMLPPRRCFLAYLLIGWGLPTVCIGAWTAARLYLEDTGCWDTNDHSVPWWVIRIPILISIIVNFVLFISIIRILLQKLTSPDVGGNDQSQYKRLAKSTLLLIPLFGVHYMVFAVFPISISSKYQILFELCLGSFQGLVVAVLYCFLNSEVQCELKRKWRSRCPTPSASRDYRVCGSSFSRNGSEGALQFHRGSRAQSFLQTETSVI

T2: human VPAC1 receptor (human, UniProt P32241 31-457)
T2 sequence (looked up): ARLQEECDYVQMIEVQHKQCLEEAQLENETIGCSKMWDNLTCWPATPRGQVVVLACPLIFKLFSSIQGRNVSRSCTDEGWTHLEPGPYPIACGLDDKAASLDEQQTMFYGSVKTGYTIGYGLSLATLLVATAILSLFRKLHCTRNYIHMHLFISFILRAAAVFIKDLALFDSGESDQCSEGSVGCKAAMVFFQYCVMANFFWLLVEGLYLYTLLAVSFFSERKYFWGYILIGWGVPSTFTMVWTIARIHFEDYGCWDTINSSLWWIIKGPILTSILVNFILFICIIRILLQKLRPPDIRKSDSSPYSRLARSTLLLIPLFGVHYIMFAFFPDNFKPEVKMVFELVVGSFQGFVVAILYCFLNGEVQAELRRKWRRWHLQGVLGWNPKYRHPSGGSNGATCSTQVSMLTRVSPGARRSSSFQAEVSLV

T3: human PAC1 receptor (human, UniProt P41586 21-468)
T3 sequence (looked up): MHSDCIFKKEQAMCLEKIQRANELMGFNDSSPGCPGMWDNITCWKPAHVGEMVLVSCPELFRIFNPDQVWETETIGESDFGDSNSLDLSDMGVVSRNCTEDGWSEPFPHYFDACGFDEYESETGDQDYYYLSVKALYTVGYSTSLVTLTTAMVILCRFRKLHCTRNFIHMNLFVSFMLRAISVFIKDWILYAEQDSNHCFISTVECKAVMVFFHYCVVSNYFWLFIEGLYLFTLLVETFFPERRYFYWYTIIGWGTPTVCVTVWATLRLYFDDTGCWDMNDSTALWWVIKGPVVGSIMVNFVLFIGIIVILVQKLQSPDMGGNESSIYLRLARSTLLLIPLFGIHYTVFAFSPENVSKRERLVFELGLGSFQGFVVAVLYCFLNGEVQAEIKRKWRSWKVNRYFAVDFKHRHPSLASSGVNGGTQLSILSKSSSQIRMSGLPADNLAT


target: T1, human VPAC2 receptor; assay: cell-based or functional assay

Binder | EC50 cAMP, DiscoveRx [nM] | EC50 cAMP, Alpha Screen [nM]
H[dS]DAVFTDNYTRLRKQVAAKKYLQSIKNKRYGGPSSGAPPPS [P48] | 9.55 | 
HSDAVFTDNYTRFRKQVAAKKYLQSIKNKRYGGPSSGAPPPS [P26] | 4.81 | 
HSDAVFTDNYTRLRKQVAAKKYLQSIKNKRYGGPSSGAPPPS [P6] | 2.56 | 3.19
HVDAVFTDNYTRLRKQVAAKKYLQSIKNKRYGGPSSGAPPPS (not fully specified) [P44] | 0.92 | 
HSDWVFTDNYTRLRKQVAAKKYLQSIKNKRYGGPSSGAPPPS [P56] | 109 | 
HSDAVFTDNYTRLRKQVAAKKYLQSIKNKRHGGPSSGAPPPS [P28] | 3.92 | 
HSDVVFTDNYTRLRKQVAAKKYLQSIKNKRYGGPSSGAPPPS [P53] | 50.5 | 
HSDFVFTDNYTRLRKQVAAKKYLQSIKNKRYGGPSSGAPPPS [P52] | 140 | 
HPDAVFTDNYTRLRKQVAAKKYLQSIKNKRYGGPSSGAPPPS [P49] | 13.4 | 
HTDAVFTDNYTRLRKQVAAKKYLQSIKNKRYGGPSSGAPPPS [P45] | 11.6 | 
HGDAVFTDNYTRLRKQVAAKKYLQSIKNKRYGGPSSGAPPPS [P43] | 5.37 | 
HSDLVFTDNYTRLRKQVAAKKYLQSIKNKRYGGPSSGAPPPS (not fully specified) [P55] | 15.3 | 
HSDYVFTDNYTRLRKQVAAKKYLQSIKNKRYGGPSSGAPPPS [P51] | 91.1 | 
HSDTVFTDNYTRLRKQVAAKKYLQSIKNKRYGGPSSGAPPPS [P54] | 32.8 | 
HLDAVFTDNYTRLRKQVAAKKYLQSIKNKRYGGPSSGAPPPS [P46] | 121 | 
HSDAFFTDNYTRLRKQVAAKKYLQSIKNKRYGGPSSGAPPPS [P58] | 11.8 | 
HSDAVFTDNWTRLRKQVAAKKYLQSIKNKRYGGPSSGAPPPS [P27] | 27.6 | 
Ac-HSDAVFTDNYTRLRKQVAAKKYLQSIKNKRYGGPSSGAPPPS [P33] | 0.86 | 0.73
HSDAVFTDNYTRLRKQVAAKKYLQSIKN[hArg]RYGGPSSGAPPPS (ends and bridges not checked) [P24] | 5.78 | 
HSDAVFTDNYTRLRKQVAAKKYLQSIKNKRF [P34] | 2.28 | 2.44
H[dA]DAVFTDNYTRLRKQVAAKKYLQSIKNKRYGGPSSGAPPPS [P47] | 1.07 | 1.39
HSDAVFTDNYTRLRRQVAARRYLQSIRNRRYGGPSSGAPPPS (not fully specified) [P71] | 3.14 | 
HSDAVFTDNYTRLRRQVAAKKYLQSIKNKRYGGPSSGAPPPS [P72] | 1.79 | 
HSDAVFTDNYTRLRKQVAAKKYLQSIKNKRYC [P37] | 1.68 | 
HSDAVFTDNYTRLRKQVAAKKYLQSI[hArg]NKRYGGPSSGAPPPS (ends and bridges not checked) [P22] | 1.18 | 2.23

target: T2, human VPAC1 receptor; assay: cell-based or functional assay

Binder | EC50 cAMP, DiscoveRx [nM]
H[dS]DAVFTDNYTRLRKQVAAKKYLQSIKNKRYGGPSSGAPPPS [P48] | 9.93
HSDAVFTDNYTRFRKQVAAKKYLQSIKNKRYGGPSSGAPPPS [P26] | 0.9
HSDAVFTDNYTRLRKQVAAKKYLQSIKNKRYGGPSSGAPPPS [P6] | 5
HVDAVFTDNYTRLRKQVAAKKYLQSIKNKRYGGPSSGAPPPS (not fully specified) [P44] | 5.5
HSDWVFTDNYTRLRKQVAAKKYLQSIKNKRYGGPSSGAPPPS [P56] | 9.96
HSDAVFTDNYTRLRKQVAAKKYLQSIKNKRHGGPSSGAPPPS [P28] | 2.6
HSDVVFTDNYTRLRKQVAAKKYLQSIKNKRYGGPSSGAPPPS [P53] | 118
HSDFVFTDNYTRLRKQVAAKKYLQSIKNKRYGGPSSGAPPPS [P52] | 37.5
HPDAVFTDNYTRLRKQVAAKKYLQSIKNKRYGGPSSGAPPPS [P49] | 22.8
HTDAVFTDNYTRLRKQVAAKKYLQSIKNKRYGGPSSGAPPPS [P45] | 1.75
HGDAVFTDNYTRLRKQVAAKKYLQSIKNKRYGGPSSGAPPPS [P43] | 75.6
HSDLVFTDNYTRLRKQVAAKKYLQSIKNKRYGGPSSGAPPPS (not fully specified) [P55] | 134
HSDYVFTDNYTRLRKQVAAKKYLQSIKNKRYGGPSSGAPPPS [P51] | 3.61
HSDTVFTDNYTRLRKQVAAKKYLQSIKNKRYGGPSSGAPPPS [P54] | 84.1
HLDAVFTDNYTRLRKQVAAKKYLQSIKNKRYGGPSSGAPPPS [P46] | 57.5
HSDAFFTDNYTRLRKQVAAKKYLQSIKNKRYGGPSSGAPPPS [P58] | 44.1
HSDAVFTDNWTRLRKQVAAKKYLQSIKNKRYGGPSSGAPPPS [P27] | 5.2
Ac-HSDAVFTDNYTRLRKQVAAKKYLQSIKNKRYGGPSSGAPPPS [P33] | 4.7
HSDAVFTDNYTRLRKQVAAKKYLQSIKN[hArg]RYGGPSSGAPPPS (ends and bridges not checked) [P24] | 2.5
HSDAVFTDNYTRLRKQVAAKKYLQSIKNKRF [P34] | 0.8
H[dA]DAVFTDNYTRLRKQVAAKKYLQSIKNKRYGGPSSGAPPPS [P47] | 3.6
HSDAVFTDNYTRLRRQVAARRYLQSIRNRRYGGPSSGAPPPS (not fully specified) [P71] | 0.2
HSDAVFTDNYTRLRRQVAAKKYLQSIKNKRYGGPSSGAPPPS [P72] | 0.3
HSDAVFTDNYTRLRKQVAAKKYLQSIKNKRYC [P37] | 6.4
HSDAVFTDNYTRLRKQVAAKKYLQSI[hArg]NKRYGGPSSGAPPPS (ends and bridges not checked) [P22] | 0.9

target: T3, human PAC1 receptor; assay: cell-based or functional assay

Binder | EC50 cAMP, DiscoveRx [nM]
H[dS]DAVFTDNYTRLRKQVAAKKYLQSIKNKRYGGPSSGAPPPS [P48] | 95.9
HSDAVFTDNYTRFRKQVAAKKYLQSIKNKRYGGPSSGAPPPS [P26] | 84
HSDAVFTDNYTRLRKQVAAKKYLQSIKNKRYGGPSSGAPPPS [P6] | > 40
HVDAVFTDNYTRLRKQVAAKKYLQSIKNKRYGGPSSGAPPPS (not fully specified) [P44] | 36.6
HSDWVFTDNYTRLRKQVAAKKYLQSIKNKRYGGPSSGAPPPS [P56] | 405
HSDAVFTDNYTRLRKQVAAKKYLQSIKNKRHGGPSSGAPPPS [P28] | 53.6
HSDVVFTDNYTRLRKQVAAKKYLQSIKNKRYGGPSSGAPPPS [P53] | > 1000
HSDFVFTDNYTRLRKQVAAKKYLQSIKNKRYGGPSSGAPPPS [P52] | > 1000
HPDAVFTDNYTRLRKQVAAKKYLQSIKNKRYGGPSSGAPPPS [P49] | 44.2
HTDAVFTDNYTRLRKQVAAKKYLQSIKNKRYGGPSSGAPPPS [P45] | 316
HGDAVFTDNYTRLRKQVAAKKYLQSIKNKRYGGPSSGAPPPS [P43] | 104
HSDLVFTDNYTRLRKQVAAKKYLQSIKNKRYGGPSSGAPPPS (not fully specified) [P55] | > 1000
HSDYVFTDNYTRLRKQVAAKKYLQSIKNKRYGGPSSGAPPPS [P51] | > 1000
HSDTVFTDNYTRLRKQVAAKKYLQSIKNKRYGGPSSGAPPPS [P54] | > 1000
HLDAVFTDNYTRLRKQVAAKKYLQSIKNKRYGGPSSGAPPPS [P46] | > 1000
HSDAFFTDNYTRLRKQVAAKKYLQSIKNKRYGGPSSGAPPPS [P58] | 35.6
HSDAVFTDNWTRLRKQVAAKKYLQSIKNKRYGGPSSGAPPPS [P27] | > 100
Ac-HSDAVFTDNYTRLRKQVAAKKYLQSIKNKRYGGPSSGAPPPS [P33] | 112
HSDAVFTDNYTRLRKQVAAKKYLQSIKN[hArg]RYGGPSSGAPPPS (ends and bridges not checked) [P24] | > 100
HSDAVFTDNYTRLRKQVAAKKYLQSIKNKRF [P34] | 80.5
H[dA]DAVFTDNYTRLRKQVAAKKYLQSIKNKRYGGPSSGAPPPS [P47] | 136
HSDAVFTDNYTRLRRQVAARRYLQSIRNRRYGGPSSGAPPPS (not fully specified) [P71] | 14.6
HSDAVFTDNYTRLRRQVAAKKYLQSIKNKRYGGPSSGAPPPS [P72] | 35.3
HSDAVFTDNYTRLRKQVAAKKYLQSIKNKRYC [P37] | 35.6
HSDAVFTDNYTRLRKQVAAKKYLQSI[hArg]NKRYGGPSSGAPPPS (ends and bridges not checked) [P22] | 73.5
